Source: patent US20090269346A1

Experiments:
LRP2 CR89 (human) [1] = molecular target: LRP2 CR89 (human) (UniProt P98164); experiment: phage binding: equal amounts of phage incubated in wells coated with LRP2 CR89, bound phage eluted and titered; no EDTA
LRP2 CR89 (human) [2] = molecular target: LRP2 CR89 (human) (UniProt P98164); experiment: phage binding: equal amounts of phage incubated in wells coated with LRP2 CR89, bound phage eluted and titered; in the presence of 50 mM EDTA

Sequence of LRP2 CR89 (human) (P98164 1025-1102): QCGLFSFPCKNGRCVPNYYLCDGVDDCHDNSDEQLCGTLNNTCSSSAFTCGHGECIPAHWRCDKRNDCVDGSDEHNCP

B1: RAP phage (protein, not shown: large carriers)
chain: YSREKNQPKPSPKRESGEEFRMEKLNQLWEKAQRLHLPPVRLAELHADLKIQERDELAWKKLKLDGLDEDGEKEARLIRNLNVILAKYGLDGKKDARQVTSNSLSGTQEDGLDDPRLEKLWHKAKTSGKFSGEELDKLWREFLHHKEKVHEYNVLLETLSRTEEIHENVISPSDLSDIKGSVLHSRHTELKEKLRSINQGLDRLRRVSHQGYSTEAEFEEPRVIDLWDLAQSANLTDKELEAFREELKHFEAKIEKHNHYQKQLEIAHEKLRHAESVGDGERVSRSREKHALLEGRTKELGYTVKKHLQDLSGRISRARAEAETG
modifications: Displayed on M13 phage as an N-terminal fusion to pIII; pIII letters not given.
cfu recovered (LRP2 CR89 (human) [1]): 520 cfu
cfu recovered (LRP2 CR89 (human) [2]): 146 cfu
